In the supplement of paper PMC11246515:
± gives the standard deviation of the averaged measurements.

Test: total protein half-life in vivo (active degradation + dilution); higher = more stable protein
[1] = E. coli NCM3722 delta-clpP delta-lon delta-hslV, growth: N-lim chemostat, doubling time 6 h
[2] = E. coli NCM3722 delta-clpP, growth: N-lim chemostat, doubling time 6 h
[3] = E. coli NCM3722 delta-hslV, growth: N-lim chemostat, doubling time 6 h
[4] = E. coli NCM3722 delta-lon, growth: N-lim chemostat, doubling time 6 h
[5] = E. coli NCM3722 delta-smpB, growth: N-lim chemostat, doubling time 6 h
[6] = wild type E. coli NCM3722, growth: C-lim chemostat, doubling time 3 h
[7] = wild type E. coli NCM3722, growth: C-lim chemostat, doubling time 6 h
[8] = wild type E. coli NCM3722, growth: C-lim chemostat, doubling time 12 h
[9] = wild type E. coli NCM3722, growth: N-lim chemostat, doubling time 6 h
[10] = wild type E. coli NCM3722, growth: N-lim chemostat, doubling time 12 h
[11] = wild type E. coli NCM3722, growth: P-lim chemostat, doubling time 6 h
[12] = wild type E. coli NCM3722, growth: P-lim chemostat, doubling time 12 h

| Sequence | total protein half-life in vivo [1] | total protein half-life in vivo [2] | total protein half-life in vivo [3] | total protein half-life in vivo [4] | total protein half-life in vivo [5] | total protein half-life in vivo [6] | total protein half-life in vivo [7] | total protein half-life in vivo [8] | total protein half-life in vivo [9] | total protein half-life in vivo [10] | total protein half-life in vivo [11] | total protein half-life in vivo [12] |
| --- | --- | --- | --- | --- | --- | --- | --- | --- | --- | --- | --- | --- |
| MSVIGRIHSFESCGTVDGPGIRFITFFQGCLMRCLYCHNRDTWDTHGGKEVTVEDLMKEVVTYRHFMNASGGGVTASGGEAILQAEFVRDWFRACKKEGIHTCLDTNGFVRRYDPVIDELLEVTDLVMLDLKQMNDEIHQNLVGVSNHRTLEFAKYLANKNVKVWIRYVVVPGWSDDDDSAHRLGEFTRDMGNVEKIELLPYHELGKHKWVAMGEEYKLDGVKPPKKETMERVKGILEQYGHKVMF [P0A9N4] | 4.86 ± 0.073 h | 5.05 ± 1.6 h | 5.08 ± 0.1 h | 4.485 ± 0.029 h | 3.9 ± 0.28 h | 2.9 ± 0.1 h | 5.48 ± 1 h | 9.78 ± 0.27 h | 4.41 ± 0.36 h | 6.62 ± 0.36 h | 4.78 ± 0.3 h | 10.1 ± 0.91 h |
| MSVIIVGGGMAGATLALAISRLSHGALPVHLIEATAPESHAHPGFDGRAIALAAGTCQQLARIGVWQSLADCATAITTVHVSDRGHAGFVTLAAEDYQLAALGQVVELHNVGQRLFALLRKAPGVTLHCPDRVANVARTQSHVEVTLESGETLTGRVLVAADGTHSALATACGVDWQQEPYEQLAVIANVATSVAHEGRAFERFTQHGPLAMLPMSDGRCSLVWCHPLERREEVLSWSDEKFCRELQSAFGWRLGKITHAGKRSAYPLALTHAARSITHRTVLVGNAAQTLHPIAGQGFNLGMRDVMSLAETLTQAQERGEDMGDYGVLCRYQQRRQSDREATIGVTDSLVHLFANRWAPLVVGRNIGLMTMELFTPARDVLAQRTLGWVAR | 5.61 ± 0.23 h | 4.77 ± 0.24 h | 6.05 ± 2.4 h | 3.69 ± 0.053 h | 4.23 ± 0.17 h | 2.72 ± 0.17 h | 4.42 ± 0.18 h | 6.83 ± 0.21 h | 4.24 ± 1.1 h | 9.5 h | 2.82 ± 0.096 h | 4.59 ± 0.42 h |
| MSVKIVIKPNTYFDSVSLMSISTRANKLDGVEQAFVAMATEMNKGVLKNLGLLTPELEQAKNGDLMIVINGKSGADNEQLLVEIEELFNTKAQSGSHEARYATIGSAKKHIPESNLAVISVNGLFAAREARQALQNDLNVMLFSDNVSVEDELALKQLAHEKGLLMMGPDCGTAIINGAALCFGNAVRRGNIGIVGASGTGSQELSVRIHEFGGGVSQLIGTGGRDLSEKIGGLMMLDAIGMLENDPQTEIIALISKPPAPAVARKVLERARACRKPVVVCFLDRGETPVDEQGLQFARGTKEAALKAVMLSGVKQENLDLHTLNQPLIADVRARLQPQQKYIRGLFCGGTLCDETMFAVMEKHGDVYSNIQPDPEFRLKDINRSIKHTFLDFGDDDFTNGKPHPMIDPTNRISRLIEEARDPEVAVIVMDFVLGFGSHEDPVGSTIETIKEAKAIAAAEGRELIILAYVLGTDLDTPSLEQQSQMLLDAGVILASSSTNTGLLAREFICKGEEA | 4.99 h | 6.9 h | 3.51 h | 3.92 h | 3.47 ± 0.37 h | 3.06 h | 4.99 ± 0.41 h | 4.892 ± 0.0075 h | 5.14 h | 8.02 ± 1.4 h | 4.47 h | 7.02 h |
| MSVKVIVTDMDGTFLNDAKTYNQPRFMAQYQELKKRGIKFVVASGNQYYQLISFFPELKDEISFVAENGALVYEHGKQLFHGELTRHESRIVIGELLKDKQLNFVACGLQSAYVSENAPEAFVALMAKHYHRLKPVKDYQEIDDVLFKFSLNLPDEQIPLVIDKLHVALDGIMKPVTSGFGFIDLIIPGLHKANGISRLLKRWDLSPQNVVAIGDSGNDAEMLKMARYSFAMGNAAENIKQIARYATDDNNHEGALNVIQAVLDNTSPFNS | 5.01 ± 0.82 h | 4.02 ± 0.23 h | 4.38 ± 0.48 h | 4.38 ± 0.34 h | 3.98 ± 0.12 h | 3.71 ± 0.2 h |  | 12.38 ± 0.075 h | 4.31 ± 0.45 h | 6.96 ± 0.49 h | 6.13 ± 0.23 h |  |
| MSVMFDPDTAIYPFPPKPTPLSIDEKAYYREKIKRLLKERNAVMVAHYYTDPEIQQLAEETGGCISDSLEMARFGAKHPASTLLVAGVRFMGETAKILSPEKTILMPTLQAECSLDLGCPVEEFNAFCDAHPDRTVVVYANTSAAVKARADWVVTSSIAVELIDHLDSLGEKIIWAPDKHLGRYVQKQTGGDILCWQGACIVHDEFKTQALTRLQEEYPDAAILVHPESPQAIVDMADAVGSTSQLIAAAKTLPHQRLIVATDRGIFYKMQQAVPDKELLEAPTAGEGATCRSCAHCPWMAMNGLQAIAEALEQEGSNHEVHVDERLRERALVPLNRMLDFAATLRG | 3.98 ± 0.16 h | 1.78 ± 0.25 h | 0.977 ± 0.24 h | 1.1 ± 0.098 h | 1.08 ± 0.25 h | 1.14 ± 0.026 h | 1.39 ± 0.083 h | 1.8 ± 0.44 h | 0.926 ± 0.058 h | 1.03 ± 0.097 h | 1.26 h | 2.48 ± 0.81 h |
| MSVQQIDWDLALIQKYNYSGPRYTSYPTALEFSEDFGEQAFLQAVARYPERPLSLYVHIPFCHKLCYFCGCNKIVTRQQHKADQYLDALEQEIVHRAPLFAGRHVSQLHWGGGTPTYLNKAQISRLMKLLRENFQFNADAEISIEVDPREIELDVLDHLRAEGFNRLSMGVQDFNKEVQRLVNREQDEEFIFALLNHAREIGFTSTNIDLIYGLPKQTPESFAFTLKRVAELNPDRLSVFNYAHLPTIFAAQRKIKDADLPSPQQKLDILQETIAFLTQSGYQFIGMDHFARPDDELAVAQREGVLHRNFQGYTTQGDTDLLGMGVSAISMIGDCYAQNQKELKQYYQQVDEQGNALWRGIALTRDDCIRRDVIKSLICNFRLDYAPIEKQWDLHFADYFAEDLKLLAPLAKDGLVDVDEKGIQVTAKGRLLIRNICMCFDTYLRQKARMQQFSRVI | 4.79 ± 0.99 h | 3.9 ± 0.13 h | 3.36 ± 0.42 h | 3.22 ± 0.1 h | 2.98 ± 0.056 h | 2.55 ± 0.33 h | 4.23 ± 0.08 h | 6.14 ± 0.71 h | 2.99 ± 0.12 h | 4.64 ± 0.16 h | 4.23 ± 0.068 h | 7.23 ± 0.7 h |
| MSVVISDAWRQRFGGTARLYGEKALQLFADAHICVVGIGGVGSWAAEALARTGIGAITLIDMDDVCVTNTNRQIHALRDNVGLAKAEVMAERIRQINPECRVTVVDDFVTPDNVAQYMSVGYSYVIDAIDSVRPKAALIAYCRRNKIPLVTTGGAGGQIDPTQIQVTDLAKTIQDPLAAKLRERLKSDFGVVKNSKGKLGVDCVFSTEALVYPQSDGTVCAMKATAEGPKRMDCASGFGAATMVTATFGFVAVSHALKKMMAKAARQG | 4.94 ± 0.44 h |  | 3.85 ± 1.2 h |  | 5.05 ± 0.58 h | 3.36 ± 0.59 h | 5.77 ± 0.26 h | 9.6 ± 0.78 h | 4.87 ± 0.32 h | 6.86 ± 1.1 h | 5.2 ± 0.15 h | 11.79 ± 0.028 h |
